In assay [1] the target is T1, human Trop-2 on Trop-2 positive cancer cells (human, UniProt P09758 27-323).
T1 construct: Endogenous Trop-2 of human tumour cell lines
T1 sequence (looked up): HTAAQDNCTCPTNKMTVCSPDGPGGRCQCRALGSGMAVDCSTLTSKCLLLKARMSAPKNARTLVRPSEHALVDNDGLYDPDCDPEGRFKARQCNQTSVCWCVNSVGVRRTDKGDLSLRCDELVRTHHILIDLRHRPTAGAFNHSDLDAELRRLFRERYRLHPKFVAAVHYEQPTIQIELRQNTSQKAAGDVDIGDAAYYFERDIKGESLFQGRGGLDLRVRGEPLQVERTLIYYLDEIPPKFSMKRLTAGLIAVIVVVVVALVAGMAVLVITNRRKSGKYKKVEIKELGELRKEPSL
The experiment in a line: flow cytometry on MDA-MB-468 cells, MFI at 4 °C against the antibody concentration (about 400 to 10000 ng/ml); Kd (µg/ml) printed beside the legend. As to the method: Internalizationi and degradation of anti-Trop-2 antibodies was measured by flow cytometry. In this study, fluorescent-conjugated secondary antibodies were used to detect the primary antibodies left on after internalization.
Next, either hRS7, or A1X4, or A1,2X4 antibody was added to cells in FACS buffer at concentrations of 400, 1000, 3000, or 10000 ng/ml, respectively, and incubated for 30 minutes at 4° C. After incubation, the cells were washed three times with FACS buffer to removed unbound antibody. The cells were then incubated at 37° C. with 5% CO₂ for antibody internalization. After 2 hours, the cells were dissociated with Trypsin and stained with fluorescent-conjugated goat anti-human IgG secondary antibodies for 30 minutes on ice in dark before being analyzed using Beckman flow cytometry system. The fluorescent intensity and cell binding percentage at each time point were analyzed by Beckman flow cytometric software. The amount of anti-Trop-2 antibodies internalized into cells at each concentration was determined using the following formula: % internalization rate = 100 × (MFI₄°C- MFI₃₇°C) / MFI₄°C
Background: In flow cytometry, cells or beads pass a laser one at a time.

Assay [2] deals with T1, human Trop-2 on Trop-2 positive cancer …. The experiment in a line: cell-based or functional assay.
Assay [3] addresses T2, human Trop-2-ECD-6His fusion protein (human, UniProt P09758 27-274).
T2 construct: Expressed in a human 293 cell line; also called huTrop-2; human Trop-2 antigen
T2 sequence: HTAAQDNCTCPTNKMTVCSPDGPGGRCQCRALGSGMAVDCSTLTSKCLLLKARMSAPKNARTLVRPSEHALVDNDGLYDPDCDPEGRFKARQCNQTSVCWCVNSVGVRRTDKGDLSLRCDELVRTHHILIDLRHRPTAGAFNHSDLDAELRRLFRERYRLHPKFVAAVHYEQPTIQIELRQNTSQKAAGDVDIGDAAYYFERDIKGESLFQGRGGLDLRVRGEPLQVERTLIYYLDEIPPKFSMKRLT
The experiment in a line: antigen binding ELISA on immobilized human Trop-2-ECD-6His.

In assay [4] the target is T2, human Trop-2-ECD-6His fusion protein. The experiment in a line: BLI (Octet), antibody at 8 ug/ml, human Trop-2ECD-6His at 3.125-50 nM. As to the method:
The binding affinity of the purified anti-Trop-2 IgGs to human Trop-2 protein were determined by Octet system based on Bio-Layer Interferometry (BLI) technique. BLI is a layer of molecules attached to the tip of an optic fiber which creates an interference pattern at the detector, any change in the number of molecules bound causes a measured shift in the pattern. Octet system enables real-time analysis for determination of affinity and kinetics from biomolecular interactions in 96-well microplates. […] A1X4 or A1,2X4 antibody was diluted and added to the assigned wells at a final concentration 8 µg/ml. The plate was put in the Octet system and assay was started. The data was analyzed using the Octet Data Acquisition Software (fortebio data analysis 10.0) to calculate an association rate constant Kon, a dissociation rate constant Koff, and a dissociation constant Kd (Kd = Koff/Kon).

For assay [5] the target is unchanged. The experiment in a line: antigen binding ELISA on immobilized human Trop-2-ECD-6His. The source holds these as a separate data set. (In general: ELISA stands for enzyme-linked immunosorbent assay.)
In assay [6] the target is T1, human Trop-2 on Trop-2 positive cancer …. The experiment in a line: cell-based or functional assay. This is another data set of the same source.
The target in the next assay is T3, human EPCAM-His (human, UniProt P16422 24-265).
T3 construct: also called hEPCAM
T3 sequence (looked up): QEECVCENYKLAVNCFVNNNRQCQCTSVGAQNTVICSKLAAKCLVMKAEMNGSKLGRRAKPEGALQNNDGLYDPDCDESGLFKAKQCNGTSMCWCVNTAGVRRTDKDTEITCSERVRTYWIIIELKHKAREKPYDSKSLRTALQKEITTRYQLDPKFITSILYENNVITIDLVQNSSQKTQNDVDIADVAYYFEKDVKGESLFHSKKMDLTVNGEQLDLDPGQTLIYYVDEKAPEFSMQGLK
The experiment in a line: ELISA on coated antigen, one antibody dilution (concentration not given); on the sheet OD405, detected by GAM/H-AP.

The target in a further assay is T4, mouse Trop-2-His (mouse, UniProt Q8BGV3 25-270).
T4 sequence (looked up): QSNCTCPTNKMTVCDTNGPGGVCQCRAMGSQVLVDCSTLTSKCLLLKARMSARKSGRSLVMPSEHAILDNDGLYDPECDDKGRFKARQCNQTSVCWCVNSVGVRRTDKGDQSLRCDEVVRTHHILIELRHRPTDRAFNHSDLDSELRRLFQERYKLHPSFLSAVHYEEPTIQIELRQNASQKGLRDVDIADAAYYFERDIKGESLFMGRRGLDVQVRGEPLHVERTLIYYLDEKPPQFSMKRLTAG
The description is as above.

Read-outs that look alike come from different tables or passages of the source.

B1: benchmark antibody hRS7 (antibody, V domains shown)
VH: QVQLQQSGSELKKPGASVKVSCKASGYTFTNYGMNWVKQAPGQGLKWMGWINTYTGEPTYTDDFKGRFAFSLDTSVSTAYLQISSLKADDTAVYFCARGGFGSSYWYFDVWGQGSLVTVSS
VL: DIQLTQSPSSLSASVGDRVSITCKASQDVSIAVAWYQQKPGKAPKLLIYSASYRYTGVPDRFSGSGSGTDFTLTISSLQPEDFAVYYCQQHYITPLTFGAGTKVDIK
As a reminder, the Kd is the concentration at which binding is half-saturated. Read a low Kd as higher affinity. A word on the EC50: it is the concentration giving half of the maximal effect. By koff is commonly meant the first-order rate constant of dissociation. As for B1, the results for the dissociation constant (Kd) in assay [1] and in assay [4] were 0.78 µg/mL and 0.78 nM, respectively. The “Internalization rate (flow cytometry, MDA-MB-468 cells)” value was determined as 23.9% in assay [2] and 10.9% in assay [6]. Besides, the EC50 was determined as 0.062 nM in assay [3] and 0.09 nM in assay [5]. In addition, the koff in assay [4] came out at 0.000244 s⁻¹.

B2: murine-human chimeric IgG1 #125-1-5 (antibody, V domains shown)
VH: QIQLVQSGPELVKPGASVKMSCKASGYTFTTYVIHWVKQKPGQGLEWIGYINPNNDGTKYNEKFKGKATLISDKSSTTAYMEVRGLTSEDSAVYYCARPHFETHAMDYWGQGTSVTVSS
VL: DIQMTQSPSSFSVSLGDSVTITCKASEDIFNRLAWYQQKPGNAPRLLISGATSLETGVPSRFSGGGSGKEYTLSITSLQNEDVATYYCQQYWNTWTFGGGTKLEIKR
notes: Chimeric IgG1 expressed in HEK293-6E cells
As to B2, the binding result in the assay with human EPCAM-His and with mouse Trop-2-His was “no binding” throughout.

B3: murine-human chimeric IgG1 #118-2-5 (antibody, V domains shown)
VH: QVQLKQSGPGLVAPSQSLSITCTVSGFSLTSYGVNWIRQPPGKGLEWLGVMWAGGSTNYNSALMSRLSISKDNSKSQVFLKMNSLQTDDTGMYYCARDENWDGAWFAYWGQGTLVTVSA
VL: DIQMTQSPSSLAVSAGEKVTMSCKSSQSLLNSGTRKNYLAWYQQKPGQSPKLLISWASSRESGVPDRFTGSGSGTDFTLTISSVQAEDLAVYYCKQSYNLFTFGGGTKLELKR
notes: as for B2
Take B3: the binding result with human EPCAM-His and with mouse Trop-2-His was “no binding” throughout.

(Values after patent US20230235080A1, “TROPHOBLAST CELL-SURFACE ANTIGEN-2 (TROP-2) ANTIBODIES” (Bionecure Therapeutics, Inc., priority 2020, published 2023).)
